These results are taken from patent publication US20240294646A1.

pKd: −log10 of the molar value.

Test [1] addresses Biotinylated FcγRIIb extracellular domain-Fc fusion (human IgG1 Fc with L234A_L235A_D265S) (human) (UniProt P31994). As to the kind of experiment: competition electrochemiluminescence, antibody on HER2-coated plate, biotinylated FcγRIIb-Fc; competitor FcγRIIaR-Fc at 10x.
Test [2] deals with Soluble FcγRIIb extracellular domain with C-terminal 10xHis tag (UniProt P31994). The test is described as follows: SPR, antibody captured on immobilised HER2, soluble receptor as analyte.
Test [3] has as its target Soluble FcγRIIaR extracellular domain with C-terminal 10xHis tag (UniProt P12318). The test is described as above.
Test [4] concerns the target Soluble FcγRIIb extracellular domain with C-terminal 10xHis tag (UniProt P31994). As to the kind of experiment: SPR; fold relative to control v27293.
Test [5] has as its target Soluble FcγRIIaR extracellular domain with C-terminal 10xHis tag (UniProt P12318). The test is described as follows: SPR; fold relative to control v27293.
Test [6] addresses Soluble FcγRIIb extracellular domain with C-terminal 10xHis tag (UniProt P31994). The test is described as follows: SPR; fold change in affinity over WT v16463.
Test [7] has as its target Soluble FcγRIIaR extracellular domain with C-terminal 10xHis tag (UniProt P12318). The test is described as follows: SPR; fold change in affinity over WT v16463.
The target in test [8] is Soluble FcγRIIb extracellular domain with C-terminal 10xHis tag (UniProt P31994). As to the kind of experiment: SPR; selectivity relative to control v27293.
For test [9] the target is unchanged. As to the kind of experiment: SPR; IIb-Fold / IIaR-Fold.
In test [10] the target is FcγRIIb, soluble extracellular domain (UniProt P31994). The test is described as follows: SPR, Protocol 2; ratio of the fold on FcγRIIb to the fold on FcγRIIaR; the wild-type reference itself.
For test [11], the target named is FcγRIIaR, soluble extracellular domain (UniProt P12318). As to the kind of experiment: SPR, Protocol 2; the wild-type reference itself.
Test [12] deals with FcγRIIb, soluble extracellular domain (UniProt P31994). The test is described as follows: SPR, Protocol 2; the wild-type reference itself.
Test [13] concerns the target FcγRIIaR, soluble extracellular domain (UniProt P12318). The test is described as follows: SPR, Protocol 2; fold over wild-type v16463.
The target in test [14] is FcγRIIb, soluble extracellular domain (UniProt P31994). The test is described as follows: SPR, Protocol 2; fold over wild-type v16463.
The target is the same in test [15]. The test is described as follows: SPR, Protocol 2; ratio of the fold on FcγRIIb to the fold on FcγRIIaR.
The target in test [16] is FcγRIIb (UniProt P31994). As to the kind of experiment: derived from the SPRi KDs for FcγRIIb and FcγRIIaR, relative to WT.
Test [17] deals with FcγRIIb (UniProt P31994). As to the kind of experiment: SPR imaging (IBIS MX96), antibody spotted on chip, soluble receptor as analyte, kinetic fit, 25 C, pH 7.4.
Test [18] addresses FcγRIIaR (UniProt P12318). The description is as above.
Test [19] concerns the target FcγRIIb (UniProt P31994). As to the kind of experiment: SPR, antibody captured on immobilised HER2, receptor as analyte; fold affinity over WT v16463.
Test [20] has as its target FcγRIIaR (UniProt P12318). Described as above.
Test [21] deals with FcγRIIb (UniProt P31994). The test is described as follows: SPR; IIb-Fold divided by IIaR-Fold (FcγRIIb against FcγRIIaR).
Test [22] has as its target FcγRIIb (UniProt P31994). As to the kind of experiment: SPR (Protocol 2); selectivity for FcγRIIb against FcγRIIaR.
Test [23] addresses FcγRIIb (UniProt P31994). As to the kind of experiment: SPR (Protocol 2, Biacore 4000), antibody captured on immobilised HER2, FcγR as analyte.
Test [24] addresses FcγRIIaR (UniProt P12318). The test is described as above.
Test [25] has as its target FcγRIIb (UniProt P31994). The test is described as follows: SPR (Protocol 2), against wild-type 16463.
Test [26] has as its target FcγRIIb (UniProt P31994). The test is described as follows: SPR (Biacore 4000, Protocol 2), one-armed antibody captured on immobilised HER2, soluble FcγR as analyte.
In test [27] the target is FcγRIIaR (UniProt P12318). The test is described as above.
The target in test [28] is Soluble FcγRIIaR extracellular domain with C-terminal 10×His tag (UniProt P12318). The test is described as follows: SPR (Biacore 4000), antibody captured on immobilised HER2, receptor as analyte.
In test [29] the target is Soluble FcγRIIb extracellular domain with C-terminal 10×His tag (UniProt P31994). The description is as above.
The target of test [30] is Soluble FcγRIIaR extracellular domain with C-terminal 10×His tag (UniProt P12318). The test is described as follows: SPR; KD of WT v16463 / KD of variant.
The target in test [31] is Soluble FcγRIIb extracellular domain with C-terminal 10×His tag (UniProt P31994). As to the kind of experiment: SPR; KD of WT v16463 / KD of variant.
Test [32] shares this target. As to the kind of experiment: SPR; IIb-Fold / IIaR-Fold (FcγRIIb against FcγRIIaR).
The target in test [33] is Biotinylated FcγRIIb extracellular domain-Fc fusion (human) (UniProt P31994). As to the kind of experiment: competition electrochemiluminescence (MSD), antibody on HER2-coated plate, biotinylated FcγRIIb-Fc; competitor FcγRIIaR-Fc at 10x.
Test [34] has as its target FcγRIIaR, soluble extracellular domain (UniProt P12318). The test is described as follows: SPR (General Methods Protocol 2): one-armed antibody captured on immobilised HER2, soluble receptor as analyte.
The target of test [35] is FcγRIIb, soluble extracellular domain (UniProt P31994). Described as above.
In test [36] the target is FcγRIIaR, soluble extracellular domain (UniProt P12318). The test is described as follows: SPR; fold change in affinity over wild-type v16463.
Test [37] addresses FcγRIIb, soluble extracellular domain (UniProt P31994). As to the kind of experiment: SPR; fold change in affinity over wild-type v16463.
For test [38] the target is unchanged. The test is described as follows: SPR; IIb-Fold/IIaR-Fold (FcγRIIb against FcγRIIaR), vs. wild-type v16463.
Test [39] shares this target. As to the kind of experiment: SPR; IIb-Fold/IIaR-Fold (FcγRIIb against FcγRIIaR), relative to control v27293.
The target in test [40] is FcγRIIaR, soluble extracellular domain (UniProt P12318). As to the kind of experiment: SPR; fold change in affinity over control v27293 (Strategy 1 Launching Module).
Test [41] addresses FcγRIIb, soluble extracellular domain (UniProt P31994). The test is described as above.
Test [42] deals with Soluble FcγRIIb extracellular domain with C-terminal 10xHis tag (UniProt P31994). The test is described as follows: SPR; fold affinity relative to control v27293.
The target of test [43] is Soluble FcγRIIaR extracellular domain with C-terminal 10xHis tag (UniProt P12318). As to the kind of experiment: SPR; fold affinity relative to control v27293.
The target of test [44] is Soluble FcγRIIb extracellular domain with C-terminal 10xHis tag (UniProt P31994). As to the kind of experiment: SPR (Biacore 4000); variant captured on HER2, receptor in solution.
Test [45] deals with Soluble FcγRIIaR extracellular domain with C-terminal 10xHis tag (UniProt P12318). Described as above.
Test [46] has as its target Soluble FcγRIIb extracellular domain with C-terminal 10xHis tag (UniProt P31994). As to the kind of experiment: SPR; IIb selectivity relative to control v27293.
Test [47] has the same target. As to the kind of experiment: SPR; KD of WT v16463 / KD of variant.
Test [48] addresses Soluble FcγRIIaR extracellular domain with C-terminal 10xHis tag (UniProt P12318). The test is described as follows: SPR; KD of WT v16463 / KD of variant.
Test [49] deals with Soluble FcγRIIb extracellular domain with C-terminal 10xHis tag (UniProt P31994). The test is described as follows: SPR; IIb-Fold / IIaR-Fold (FcγRIIb against FcγRIIaR).

On to “Variant 27293, Launching Module 1 (A_G236N_G237A / B_G236D_G237F_S239D_S267V_H268D_Template_1), one-armed trastuzumab antibody”, for which the ELISA (% of non-competed FcγRIIb signal in presence of 10x FcγRIIa) in [1] is 70.8%. Moreover, the pKd was 8.46 in test [2] and 8.06 in [3]. The same substance had an IIb-Fold wrt Control in test [4] of 1 fold. The same substance came in with an IIaR-Fold wrt Control in test [5] of 1 fold. Also, the IIb-Fold in [6] stood at 415 fold. For the same substance, in [7], the IIaR-fold was 35.2 fold. Further, the IIb Selectivity Fold wrt Control in test [8] is 1 fold. Moreover, the IIb Selectivity in test [9] was found to be 11.8.

Consider “Variant 16463, wild-type control one-armed trastuzumab antibody with heterodimeric IgG1 Fc”, for which the IIb/IIaR Selectivity (IIb-Fold/IIaR-Fold) in test [10] stood at 1. Also, the IIaR-fold (fold change in affinity over wild-type) in test [11] amounted to 1 fold. The same substance returned an IIb-fold (fold change in affinity over wild-type) in test [12] of 1 fold.

In turn, “Variant 18370 (S239D), one-armed trastuzumab antibody with heterodimeric IgG1 Fc” returned an IIaR-fold (fold change in affinity over wild-type) in test [13] of 3.8 fold. Also, the IIb-fold (fold change in affinity over wild-type) in [14] came to 4.39 fold. In addition, the IIb/IIaR Selectivity (IIb-Fold/IIaR-Fold) in test [15] worked out at 1.2.

Take “v12 (IIb-specific comparator, symmetrical E233D_G237D_P238D_H268D_P271G_A330R), anti-CD19 (4G7) full-size antibody”: in the test with FcγRIIb [16], the IIb Selectivity (IIb-Fold/IIaR-Fold) was determined as 106 fold. The results for the pKd with FcγRIIb [17] and with FcγRIIaR [18] were 7.89 and 6.34, respectively.

For the substance “Variant 27362, Strat 3 control (A_G236N_G237A / B_G236D_G237F_S239D_S267V_H268D) (antibody)”, the IIb-Fold with FcγRIIb [19] is 9 fold. Further, the IIaR-fold with FcγRIIaR [20] came out at 1 fold. Besides, the IIb Selectivity with FcγRIIb [21] amounted to 9 fold.

Take “Variant 18372, control without loop replacement (chain B S239D_H268D), one-armed antibody Scaffold 2”: the IIb/IIaR Selectivity with FcγRIIb [22] was 1.4. For the same substance, the pKd is 7.41 with FcγRIIb [23] and 7.77 with FcγRIIaR [24]. This substance also showed an IIb-Fold (fold change in affinity over wild-type) (fold over wild-type) with FcγRIIb [25] of 29.3.

For “v16463, wild-type one-armed trastuzumab antibody (OAA format)”, the pKd was 5.85 with FcγRIIb [26] and 6.51 with FcγRIIaR [27].

Consider “v12, IIb-specific comparator with symmetrical E233D_G237D_P238D_H268D_P271G_A330R (antibody)”, for which the pKd in test [28] was 6.66; in test [29], 7.89. This substance showed an IIaR-fold in test [30] of 1.4 fold. Further, in [31], the IIb-Fold came to 112 fold. The IIb Selectivity in [32] was 80.5 fold. The ELISA (% of non-competed FcγRIIb signal in presence of 10x FcγRIIa) in test [33] came to 100%.

With “Variant 27293, Strategy 1 Launching Module 1 (A_G236N_G237A / B_G236D_G237F_S239D_S267V_H268D_Template 1), one-armed trastuzumab antibody”, the negative logarithm of the Kd (pKd) in test [34] was 8.06; in [35] it was 8.46. Further, the IIaR-Fold vs. WT in test [36] turned out to be 35 fold. For the same substance, the IIb-Fold vs. WT in test [37] is 415 fold. This substance also came in with an IIb/IIaR Selectivity vs. WT in test [38] of 11.8 fold. Further, the IIb/IIaR Selectivity vs. Control in test [39] is 1 fold. In addition, the IIaR-Fold vs. Control in [40] is 1 fold. The same substance registered an IIb-Fold vs. Control in test [41] of 1 fold.

In [42], “v26133 (A_N236I_strat1), one-armed trastuzumab antibody” displayed an IIb-Fold wrt Control of 1.4 fold. In addition, the IIaR-Fold wrt Control in test [43] worked out at 1.1 fold. Besides, the pKd was 8.60 in [44] and 8.08 in test [45]. Also, the IIb Selectivity Fold wrt Control in [46] came out at 1.3 fold. In test [47], the IIb-Fold amounted to 585 fold. This substance also yielded an IIaR-fold in test [48] of 37.3 fold. This substance also displayed an IIb Selectivity in test [49] of 15.7 fold.
